According to the supplement of paper PMC9233669:
This sample holds only a part of the variants without activity.

Experiments:
biotinyl-Phe-oxazolone = experiment: self-aminoacylation, catalytic enhancement (BFO) (fold over background); higher = more active; k-Seq, kA / k0A0; sequences stand for … in GGGAAUGGAUCCACAUCUACGAAUUC…UUCACUGCAGACUUGACGAAGCUG
Summary of the method: (§1)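 The uncatalyzed rate is the low-activity peak of a bimodal Gaussian fit, and catalytic enhancement is median kA divided by it. The kA values came from pseudo-first-order fits, with 1000 bootstraps, of per-sequence fraction reacted measured by streptavidin capture, triplicate qPCR and Illumina sequencing. Mutagenized RNA pools with a 21-nt variable region (0.43 μM) were reacted with each biotinyl-aminoacyl-oxazolone at 2–1250 μM in 50 μL HEPES/NaCl/KCl/MgCl2/CaCl2 buffer with 5% acetonitrile, pH 6.9–7.0, for 90 minutes at room temperature.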

biotinyl-Val-oxazolone = experiment: self-aminoacylation, catalytic enhancement (BVO) (fold over background); higher = more active; k-Seq, kA / k0A0; sequences stand for … in GGGAAUGGAUCCACAUCUACGAAUUC…UUCACUGCAGACUUGACGAAGCUG
Summary of the method: as §1

biotinyl-Trp-oxazolone = experiment: self-aminoacylation, catalytic enhancement (BWO) (fold over background); higher = more active; k-Seq, kA / k0A0; sequences stand for … in GGGAAUGGAUCCACAUCUACGAAUUC…UUCACUGCAGACUUGACGAAGCUG
Summary of the method: as §1

biotinyl-Leu-oxazolone = experiment: self-aminoacylation, catalytic enhancement (BLO) (fold over background); higher = more active; k-Seq, kA / k0A0; sequences stand for … in GGGAAUGGAUCCACAUCUACGAAUUC…UUCACUGCAGACUUGACGAAGCUG
Summary of the method: as §1

biotinyl-Met-oxazolone = experiment: self-aminoacylation, catalytic enhancement (BMO) (fold over background); higher = more active; k-Seq, kA / k0A0; sequences stand for … in GGGAAUGGAUCCACAUCUACGAAUUC…UUCACUGCAGACUUGACGAAGCUG
Summary of the method: as §1

biotinyl-Ile-oxazolone = experiment: self-aminoacylation, catalytic enhancement (BIO) (fold over background); higher = more active; k-Seq, kA / k0A0; sequences stand for … in GGGAAUGGAUCCACAUCUACGAAUUC…UUCACUGCAGACUUGACGAAGCUG
Summary of the method: as §1

Sequence	self-aminoacylation (biotinyl-Phe-oxazolone)	self-aminoacylation (biotinyl-Val-oxazolone)	self-aminoacylation (biotinyl-Trp-oxazolone)	self-aminoacylation (biotinyl-Leu-oxazolone)	self-aminoacylation (biotinyl-Met-oxazolone)	self-aminoacylation (biotinyl-Ile-oxazolone)
CAGUUUGCUAAUAGUAGCAAG [Fam3.1 aminoacylation ribozyme variant]	2.46	1.04	1.65	1.5	1.58	1.26
CAGUUUGCUAAUAGUCGCACG [Fam3.1 aminoacylation ribozyme variant]	1.25	1.05	1.46	1.35	1.1	1.3
CAGUUUGCUAAUAGUUGCAAG [Fam3.1 aminoacylation ribozyme variant]	1.55	1.23	1.18	1.5	1.44	1.53
CAGUUUGCUAUUAGUCGCAAG [Fam3.1 aminoacylation ribozyme variant]	1.88	1.22	1.29	1.5	1.25	1.24
CCAAACCUCAAGCAAUCGGUC [Fam1B.1 aminoacylation ribozyme variant]	1.54	1.29	1.22	1.27	1.12	1.35
CCAAACUUCAAACAAUCGGUC [Fam1B.1 aminoacylation ribozyme variant]	86.6	1.52	42	2.21	1.53	1.35
CCAAACUUCAAGCAAACGGUC [Fam1B.1 aminoacylation ribozyme variant]	0.911	0.846	0.811	0.607	0.699	0.832
CCAAACUUCAAGCAAUUGGUC [Fam1B.1 aminoacylation ribozyme variant]	1.1	0.828	0.886	0.767	0.81	0.759
CCAAACUUCAAGCCAUCGGUC [Fam1B.1 aminoacylation ribozyme variant]	1.07	1.18	1.01	1.03	1.28	1.15
CCAAACUUCAAGCGAUCGGUC [Fam1B.1 aminoacylation ribozyme variant]	1.09	1.35	1.25	1.32	1.11	1.1
CCAAACUUUAAGCAAUCGGUC [Fam1B.1 aminoacylation ribozyme variant]	0.824	0.993	0.664	0.846	0.869	1.11
CCACAAUGCAAGCAAUCGGUC [Fam1B.1 aminoacylation ribozyme variant]	1.02	1.41	0.93	1.01	1.22	1.48
CCACAAUUCAAGAAAUCGGUC [Fam1B.1 aminoacylation ribozyme variant]	1.38	0.906	1.41	0.866	0.78	0.949
CCACACAGCAAGCAAUCGGUC [Fam1B.1 aminoacylation ribozyme variant]	1.35	1.11	0.608	0.787	0.699	0.864
CCACACAUCAAGCAAGCGGUC [Fam1B.1 aminoacylation ribozyme variant]	0.546	1.03	0.988	0.901	0.779	0.968
CCACACAUCAAGCAAUCGGUG [Fam1B.1 aminoacylation ribozyme variant]	31.6	3.26	5.14	6.65	4.98	3.27
CCACACAUCAAGCACUCGGUC [Fam1B.1 aminoacylation ribozyme variant]	0.805	1.18	0.94	0.724	1.02	0.935
CCACACAUCUAGCAAUCGGUC [Fam1B.1 aminoacylation ribozyme variant]	0.911	0.93	0.615	0.712	0.797	0.894
CCACACCUCAACCAAUCGGUC [Fam1B.1 aminoacylation ribozyme variant]	3.45	1.02	3.13	1.28	1.37	1.11
CCACACCUCAAGCAAGCGGUC [Fam1B.1 aminoacylation ribozyme variant]	1.27	1.21	1.32	0.921	1.02	1.34
CCACACCUCAAGCAAUCGGUC [Fam1B.1 aminoacylation ribozyme variant]	2.37	1.15	1.56	0.908	0.862	1.03
CCACACCUCAAGCGAUCGGUC [Fam1B.1 aminoacylation ribozyme variant]	1.09	1.73	1.5	1.69	1.33	1.31
CCACACCUCCAGCAAUCGGUC [Fam1B.1 aminoacylation ribozyme variant]	1.64	1.4	1.19	1.15	1.27	1.69
CCACACGUCAAGAAAUCGGUC [Fam1B.1 aminoacylation ribozyme variant]	1.01	1.44	0.951	1.28	1.17	1.28
CCACACGUCAAGCAAUCUGUC [Fam1B.1 aminoacylation ribozyme variant]	0.326	0.543	0.24	0.422	0.472	0.54
CCACACGUCAAGCACUCGGUC [Fam1B.1 aminoacylation ribozyme variant]	2.16	2.17	1.1	1.23	1.13	1.17

Sequence	self-aminoacylation (biotinyl-Phe-oxazolone)	self-aminoacylation (biotinyl-Val-oxazolone)	self-aminoacylation (biotinyl-Trp-oxazolone)	self-aminoacylation (biotinyl-Leu-oxazolone)	self-aminoacylation (biotinyl-Met-oxazolone)	self-aminoacylation (biotinyl-Ile-oxazolone)
CCACACGUCUAGCAAUCGGUC [Fam1B.1 aminoacylation ribozyme variant]	0.972	1.15	0.768	0.937	0.9	1.01
CCACACUACAAGCAAUGGGUC [Fam1B.1 aminoacylation ribozyme variant]	0.762	0.842	0.735	0.511	0.778	0.72
CCACACUAGAAGCAAUCGGUC [Fam1B.1 aminoacylation ribozyme variant]	0.713	0.961	0.873	0.954	0.747	0.809
CCACACUCCAAGCAAUCGCUC [Fam1B.1 aminoacylation ribozyme variant]	0.753	2.56	2.47	1.38	1.29	1.92
CCACACUCCAAGCAAUCGGAC [Fam1B.1 aminoacylation ribozyme variant]	0.729	0.937	0.574	1.37	0.74	1.09
CCACACUCCAAGCAAUCGGUG [Fam1B.1 aminoacylation ribozyme variant]	59.9	4.45	6.72	9.97	7.47	4.43
CCACACUCCACGCAAUCGGUC [Fam1B.1 aminoacylation ribozyme variant]	0.759	1.62	1.18	1.2	1	1.51
CCACACUCCCAGCAAUCGGUC [Fam1B.1 aminoacylation ribozyme variant]	0.634	1.59	1.02	1.6	1.41	1.65
CCACACUCUAAGCAAUCGGUC [Fam1B.1 aminoacylation ribozyme variant]	1.04	1.06	0.903	0.683	0.69	0.985
CCACACUGCAAGAAAUCGGUC [Fam1B.1 aminoacylation ribozyme variant]	1.29	1.72	1.51	1.51	1.12	1.51
CCACACUGCAAGCAAUAGGUC [Fam1B.1 aminoacylation ribozyme variant]	1.15	0.907	0.601	0.915	0.777	0.905
CCACACUGCAAGCAAUCGCUC [Fam1B.1 aminoacylation ribozyme variant]	16	2.35	1.78	2.4	2.1	2.73
CCACACUGCAAGCAAUCGGUA [Fam1B.1 aminoacylation ribozyme variant]	0.894	2.25	2.33	2.11	2.16	2.19
CCACACUUAAAGCAAUCGGCC [Fam1B.1 aminoacylation ribozyme variant]	7.34	1.97	1.7	2.15	1.71	1.72
CCACACUUAAAGCAUUCGGUC [Fam1B.1 aminoacylation ribozyme variant]	1.03	1.58	1.15	1.29	1.17	1.63
CCACACUUAAAGCGAUCGGUC [Fam1B.1 aminoacylation ribozyme variant]	0.793	1.18	0.934	1	0.963	1.23
CCACACUUAAAUCAAUCGGUC [Fam1B.1 aminoacylation ribozyme variant]	0.699	0.914	0.868	0.787	0.589	0.829
CCACACUUAAGGCAAUCGGUC [Fam1B.1 aminoacylation ribozyme variant]	0.764	0.981	1.25	1.03	0.983	1.15
CCACACUUAAUGCAAUCGGUC [Fam1B.1 aminoacylation ribozyme variant]	0.949	0.763	0.642	0.693	0.752	0.855
CCACACUUAUAGCAAUCGGUC [Fam1B.1 aminoacylation ribozyme variant]	0.926	0.927	0.886	0.722	0.667	1
CCACACUUCAACCAAUCAGUC [Fam1B.1 aminoacylation ribozyme variant]	28.8	1.04	9.75	1.04	0.804	0.978
CCACACUUCAACCAAUCUGUC [Fam1B.1 aminoacylation ribozyme variant]	0.77	0.607	0.369	0.377	0.419	0.426
CCACACUUCAAGAAAUCGCUC [Fam1B.1 aminoacylation ribozyme variant]	0.492	1.05	0.881	0.886	1.14	1.13
CCACACUUCAAGAAAUCGGUG [Fam1B.1 aminoacylation ribozyme variant]	55.3	3.53	8.37	10.6	6.53	4.82
CCACACUUCAAGCAAACGGUG [Fam1B.1 aminoacylation ribozyme variant]	10.7	3.33	4.31	5.1	3.91	3.12
